Measurements as given in the supplement of paper PMC9233669.
Fewer inactive variants are shown than the library holds.

Tests used:
biotinyl-Trp-oxazolone = test: self-aminoacylation, catalytic enhancement (BWO) (fold over background); higher = more active; k-Seq, kA / k0A0; sequences stand for … in GGGAAUGGAUCCACAUCUACGAAUUC…UUCACUGCAGACUUGACGAAGCUG
In short: (§1)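 Working in 50 μL HEPES/NaCl/KCl/MgCl2/CaCl2 buffer with 5% acetonitrile at pH 6.9–7.0, mutagenized RNA pools (0.43 μM; 21-nt variable region) were reacted with 2–1250 μM of each biotinyl-aminoacyl-oxazolone for 90 minutes at room temperature. Streptavidin capture followed, with quantification by triplicate qPCR and Illumina sequencing. Catalytic enhancement is reported as median kA over the uncatalyzed rate, the low-activity peak of a bimodal Gaussian fit to the data.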

biotinyl-Val-oxazolone = test: self-aminoacylation, catalytic enhancement (BVO) (fold over background); higher = more active; k-Seq, kA / k0A0; sequences stand for … in GGGAAUGGAUCCACAUCUACGAAUUC…UUCACUGCAGACUUGACGAAGCUG
In short: as §1

biotinyl-Leu-oxazolone = test: self-aminoacylation, catalytic enhancement (BLO) (fold over background); higher = more active; k-Seq, kA / k0A0; sequences stand for … in GGGAAUGGAUCCACAUCUACGAAUUC…UUCACUGCAGACUUGACGAAGCUG
In short: as §1

biotinyl-Ile-oxazolone = test: self-aminoacylation, catalytic enhancement (BIO) (fold over background); higher = more active; k-Seq, kA / k0A0; sequences stand for … in GGGAAUGGAUCCACAUCUACGAAUUC…UUCACUGCAGACUUGACGAAGCUG
In short: as §1

biotinyl-Met-oxazolone = test: self-aminoacylation, catalytic enhancement (BMO) (fold over background); higher = more active; k-Seq, kA / k0A0; sequences stand for … in GGGAAUGGAUCCACAUCUACGAAUUC…UUCACUGCAGACUUGACGAAGCUG
In short: as §1

biotinyl-Phe-oxazolone = test: self-aminoacylation, catalytic enhancement (BFO) (fold over background); higher = more active; k-Seq, kA / k0A0; sequences stand for … in GGGAAUGGAUCCACAUCUACGAAUUC…UUCACUGCAGACUUGACGAAGCUG
In short: as §1

Row | Sequence | self-aminoacylation (biotinyl-Trp-oxazolone) | self-aminoacylation (biotinyl-Val-oxazolone) | self-aminoacylation (biotinyl-Leu-oxazolone) | self-aminoacylation (biotinyl-Ile-oxazolone) | self-aminoacylation (biotinyl-Met-oxazolone) | self-aminoacylation (biotinyl-Phe-oxazolone)
1 | CCACACUUCAAGCAACCGGAC [Fam1B.1 aminoacylation ribozyme variant] | 0.606 | 1.07 | 0.602 | 1.15 | 0.839 | 0.734
2 | CCACACUUCAAGCAAGCUGUC [Fam1B.1 aminoacylation ribozyme variant] | 0.346 | 0.565 | 0.404 | 0.504 | 0.451 | 0.716
3 | CCACACUUCAAGCAAUACGUC [Fam1B.1 aminoacylation ribozyme variant] | 0.556 | 0.925 | 0.563 | 0.705 | 0.457 | 1.36
4 | CCACACUUCAAGCAAUCAGCC [Fam1B.1 aminoacylation ribozyme variant] | 2.26 | 1.72 | 1.51 | 1.04 | 0.884 | 3.01
5 | CCACACUUCAAGCAAUCAGUA [Fam1B.1 aminoacylation ribozyme variant] | 0.842 | 0.842 | 0.899 | 0.983 | 0.861 | 1.17
6 | CCACACUUCAAGCAAUCAGUU [Fam1B.1 aminoacylation ribozyme variant] | 1.12 | 1.29 | 0.925 | 1.15 | 0.802 | 2.42
7 | CCACACUUCAAGCAAUCAUUC [Fam1B.1 aminoacylation ribozyme variant] | 0.686 | 0.671 | 0.56 | 0.649 | 0.539 | 1.64
8 | CCACACUUCAAGCAAUCCCUC [Fam1B.1 aminoacylation ribozyme variant] | 1.35 | 1.15 | 0.729 | 1.04 | 0.846 | 0.896
9 | CCACACUUCAAGCAAUCCGUC [Fam1B.1 aminoacylation ribozyme variant] | 0.828 | 1.01 | 0.664 | 0.894 | 0.659 | 1.34
10 | CCACACUUCAAGCAAUCGCUA [Fam1B.1 aminoacylation ribozyme variant] | 1.27 | 1.94 | 1.44 | 1.41 | 1.22 | 1.05
11 | CCACACUUCAAGCAAUCGCUG [Fam1B.1 aminoacylation ribozyme variant] | 0.872 | 1.12 | 0.928 | 1.22 | 1.13 | 0.653
12 | CCACACUUCAAGCAAUCUAUC [Fam1B.1 aminoacylation ribozyme variant] | 0.287 | 0.683 | 0.533 | 0.557 | 0.422 | 0.891
13 | CCACACUUCAAGCAAUCUGUG [Fam1B.1 aminoacylation ribozyme variant] | 0.383 | 0.635 | 0.657 | 0.514 | 0.547 | 0.656
14 | CCACACUUCAAGCAAUUGAUC [Fam1B.1 aminoacylation ribozyme variant] | 0.518 | 0.538 | 0.536 | 0.573 | 0.368 | 0.853
15 | CCACACUUCAAGCACUCGAUC [Fam1B.1 aminoacylation ribozyme variant] | 0.436 | 0.713 | 0.546 | 0.604 | 0.43 | 0.872
16 | CCACACUUCAAGCACUCGGGC [Fam1B.1 aminoacylation ribozyme variant] | 3.37 | 3.61 | 2.62 | 2.58 | 3.49 | 13.2
17 | CCACACUUCAAGCACUCGGUC [Fam1B.1 aminoacylation ribozyme variant] | 0.733 | 0.996 | 0.757 | 0.855 | 0.777 | 0.887
18 | CCACACUUCAAGCACUGGGUC [Fam1B.1 aminoacylation ribozyme variant] | 1.03 | 1.1 | 0.971 | 0.807 | 0.66 | 0.974
19 | CCACACUUCAAGCAUGCGGUC [Fam1B.1 aminoacylation ribozyme variant] | 2.22 | 2.27 | 1.62 | 1.41 | 1.57 | 0.814
20 | CCACACUUCAAGCAUUCGAUC [Fam1B.1 aminoacylation ribozyme variant] | 0.748 | 0.856 | 0.577 | 0.664 | 0.629 | 1.11
21 | CCACACUUCAAGCAUUCGCUC [Fam1B.1 aminoacylation ribozyme variant] | 2.64 | 2.88 | 2.41 | 2.27 | 2.42 | 2.04

Row | Sequence | self-aminoacylation (biotinyl-Trp-oxazolone) | self-aminoacylation (biotinyl-Val-oxazolone) | self-aminoacylation (biotinyl-Leu-oxazolone) | self-aminoacylation (biotinyl-Ile-oxazolone) | self-aminoacylation (biotinyl-Met-oxazolone) | self-aminoacylation (biotinyl-Phe-oxazolone)
22 | CCACACUUCAAGCAUUCGGAC [Fam1B.1 aminoacylation ribozyme variant] | 0.71 | 1.29 | 0.681 | 1.35 | 0.977 | 0.829
23 | CCACACUUCAAGCAUUCGGUG [Fam1B.1 aminoacylation ribozyme variant] | 7.88 | 5.97 | 11 | 5.54 | 8.89 | 68.5
24 | CCACACUUCAAGCCAUCGGUC [Fam1B.1 aminoacylation ribozyme variant] | 0.932 | 1.24 | 0.986 | 0.995 | 0.95 | 0.854
25 | CCACACUUCAAGCCAUCGGUG [Fam1B.1 aminoacylation ribozyme variant] | 4.89 | 4.15 | 6.79 | 3.57 | 4.72 | 31.3
26 | CCACACUUCAAGCCAUUGGUC [Fam1B.1 aminoacylation ribozyme variant] | 0.734 | 1.09 | 0.848 | 0.787 | 0.874 | 0.631
27 | CCACACUUCAAGCGAUCAGUC [Fam1B.1 aminoacylation ribozyme variant] | 0.843 | 0.776 | 0.665 | 0.884 | 0.699 | 1.37
28 | CCACACUUCAAGCGAUCGGAC [Fam1B.1 aminoacylation ribozyme variant] | 1.36 | 1.27 | 1.26 | 1.22 | 1.33 | 0.588
29 | CCACACUUCAAGCGAUCGGUC [Fam1B.1 aminoacylation ribozyme variant] | 1.51 | 1.02 | 0.815 | 0.887 | 0.743 | 1.72
30 | CCACACUUCAAGCUAUCGGUG [Fam1B.1 aminoacylation ribozyme variant] | 5.5 | 3.77 | 6.48 | 3.88 | 5.19 | 33
31 | CCACACUUCAAGCUAUUGGUC [Fam1B.1 aminoacylation ribozyme variant] | 0.661 | 0.759 | 0.595 | 0.797 | 0.643 | 0.896
32 | CCACACUUCAAGCUCUCGGUC [Fam1B.1 aminoacylation ribozyme variant] | 1.1 | 1.42 | 1.25 | 1.21 | 1.14 | 0.716
33 | CCACACUUCAAGGAAUCGGCC [Fam1B.1 aminoacylation ribozyme variant] | 4.4 | 2.4 | 2.39 | 1.89 | 2.08 | 1.42
34 | CCACACUUCAAGGAAUCGGUA [Fam1B.1 aminoacylation ribozyme variant] | 0.902 | 1.18 | 1.23 | 1.26 | 1 | 0.499
35 | CCACACUUCAAGGUAUCGGUC [Fam1B.1 aminoacylation ribozyme variant] | 1.28 | 0.995 | 0.907 | 0.941 | 0.95 | 0.829
36 | CCACACUUCAAGUCAUCGGUC [Fam1B.1 aminoacylation ribozyme variant] | 0.698 | 1.32 | 1.31 | 1.05 | 1.04 | 0.991
37 | CCACACUUCAAUCAAUAGGUC [Fam1B.1 aminoacylation ribozyme variant] | 0.511 | 0.646 | 0.517 | 0.573 | 0.569 | 1.11
38 | CCACACUUCAAUCAAUCGGUA [Fam1B.1 aminoacylation ribozyme variant] | 0.739 | 0.849 | 0.609 | 0.79 | 0.749 | 0.825
39 | CCACACUUCAAUCAAUCGGUU [Fam1B.1 aminoacylation ribozyme variant] | 5.87 | 1.21 | 1.34 | 1.47 | 1.16 | 7.61
40 | CCACACUUCACGCAAACGGUC [Fam1B.1 aminoacylation ribozyme variant] | 0.98 | 0.995 | 0.861 | 0.736 | 0.793 | 0.827
41 | CCACACUUCACGCAACCGGUC [Fam1B.1 aminoacylation ribozyme variant] | 0.831 | 1.55 | 1.55 | 1.24 | 1.21 | 0.978
42 | CCACACUUCACGCAAUCGGUU [Fam1B.1 aminoacylation ribozyme variant] | 1.45 | 1.92 | 1.95 | 1.76 | 2.01 | 0.906
